Values belong to the molecule of their own block, whether it stands above or below them.
Experiments:
[1] = target: human chymotrypsin C (CTRC) mutant N52S, active enzyme (human) (UniProt Q99895); experiment: equilibrium inhibitor binding assay
[2] = target: human chymotrypsin C (CTRC), wild type, active enzyme (human) (UniProt Q99895); experiment: equilibrium inhibitor binding assay
[3] = active site titration of media with SGPI-2; details: glycan lost; control: wild type
[4] = steady-state kinetics, purified CTRC; details: glycan lost; control: wild type (HEK 293T)
[5] = casein digestion time course, SDS-PAGE; details: glycan lost; control: wild type (HEK 293T)
[6] = Leu81-Glu82 cleavage time course, SDS-PAGE; details: glycan lost; control: wild type (HEK 293T)
[7] = trypsin-induced mobility shift on reducing SDS-PAGE; details: glycan lost; control: wild type
[8] = CTRC activity of HEK 293T conditioned media; details: glycan gained; control: wild type

Kd [1]: 2.7 nM
Kd [2]: 3.9 nM
Molecule: Schistocerca gregaria proteinase inhibitor-2 (SGPI-2) (natural protein)

B1: rat CTRC: N90S (protein)
parent chain: MLGITVLAAILACASCCGNPAFPPNLSTRVVGGEDAVPNSWPWQVSLQYLKDDTWRHTCGGSLITTSHVLTAAHCINKDFTYRVGLGKYNLTVEDEEGSVYAEVDTIYVHEKWNRLFLWNDIAIIKLAEPVELSNTIQVACIPEEGSLLPQDYPCYVTGWGRLWTNGPIAEVLQQGLQPIVSHATCSRLDWWFIKVRKTMVCAGGDGVISACNGDSGGPLNCQAEDGSWQVHGIVSFGSSSGCNVHKKPVVFTRVSAYNDWINEKIQL
expression_or_secretion, other: concentration in medium [3]: decreases, 62.4 vs 175

B2: human chymotrypsin C (CTRC): N52S (protein)
parent chain: MLGITVLAALLACASSCGVPSFPPNLSARVVGGEDARPHSWPWQISLQYLKNDTWRHTCGGTLIASNFVLTAAHCISNTRTYRVAVGKNNLEVEDEEGSLFVGVDTIHVHKRWNALLLRNDIALIKLAEHVELSDTIQVACLPEKDSLLPKDYPCYVTGWGRLWTNGPIADKLQQGLQPVVDHATCSRIDWWGFRVKKTMVCAGGDGVISACNGDSGGPLNCQLENGSWEVFGIVSFGSRRGCNTRKKPVVYTRVSAYIDWINEKMQL
enzymatic_activity, kcat_Km [4]: no change, 1.2 × 106 vs 1.2 × 106
enzymatic_activity [5]: no change
enzymatic_activity [6]: no change
other: proteolytic processing [7]: no change

B3: bovine CTRC: E92T (protein)
parent chain: MLGITVFTTFLAYASSCGAPIFQPNLSARVVGGEDAIPHSWPWQISLQYLRDNTWRHTCGGTLITPNHVLTAAHCISNTLTYRVALGKNNLEVEDEAGSLYVGVDTIFVHEKWNSFLVRNDIALIKLAETVELSDTIQVACLPEEGSLLPQDYPCFVTGWGRLYTNGPIAAELQQGLQPVVDYATCSQRDWWGTTVKETMVCAGGDGVISACNGDSGGPLNCQAENGNWDVRGIVSFGSGLSCNTFKKPTVFTRVSAYIDWINQKLQL
expression_or_secretion, fold_change [8]: no change

Source: publication PMC3209518
